Consider three molecules from patent US20220195407, “OPTIMIZATION OF ENGINEERED MEGANUCLEASES FOR RECOGNITION SEQUENCES” (Precision BioSciences, Inc., published 2022).

What all share (assay): cell_activity; CHO iGFFP reporter
One series concerns the target T1, LOX 3-4 m.97 (artificial (I-CreI derived)).
T1 chain: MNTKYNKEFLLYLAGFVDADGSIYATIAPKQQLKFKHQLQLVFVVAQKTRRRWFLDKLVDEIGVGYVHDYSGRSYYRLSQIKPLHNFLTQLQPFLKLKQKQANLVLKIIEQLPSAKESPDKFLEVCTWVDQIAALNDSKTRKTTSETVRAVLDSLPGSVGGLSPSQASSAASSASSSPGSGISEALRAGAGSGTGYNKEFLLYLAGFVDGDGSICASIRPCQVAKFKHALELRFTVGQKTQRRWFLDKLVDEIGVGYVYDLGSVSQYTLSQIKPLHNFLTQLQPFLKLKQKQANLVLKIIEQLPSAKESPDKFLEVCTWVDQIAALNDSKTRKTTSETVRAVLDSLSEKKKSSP
From the text: (§1) A CHO cell reporter system (see WO/2012/167192, FIG. 3) was used to determine whether the engineered meganucleases generated in these studies could recognize and cleave the modified LOX 3-4 recognition sequences in Table 87. To perform the assay, a pair of CHO cell reporter lines were produced, which carried a non-functional Green Fluorescent Protein (GFP) gene expression cassette integrated into the genome of the cell. The GFP gene in each cell line was interrupted by a pair of recognition sequences such that intracellular cleavage of either recognition sequence by a meganuclease would stimulate a homologous recombination event resulting in a functional GFP gene. In both cell lines, one of the recognition sequences was derived from the LOX 3-4 recognition sequence (i.e., those sequences disclosed in Table 87), and the second recognition sequence was specifically recognized by a control meganuclease called “CHO 23/24.” CHO reporter cells comprising a recognition sequence derived from the LOX 3-4 recognition sequence and the CHO 23/24 recognition sequence are referred to herein as “test cells.”
(§2) Novel engineered meganucleases derived from the LOX 3-4x.109 meganuclease were prepared by making amino acid substitutions at one or more positions in the first subunit. These engineered meganucleases were then evaluated for cleavage of the LOX 3-4 recognition sequence modified to have a GTAG center sequence (SEQ ID NO: 390) in the CHO reporter assay according to Example 1. Novel meganucleases which were modified to comprise the residues recited in the tables below were capable of cleaving the LOX 3-4 recognition sequence having a GTAG four base pair center sequence.

A further series concerns the target T2, LOX 3-4 m.108 (artificial (I-CreI derived)).
T2 chain: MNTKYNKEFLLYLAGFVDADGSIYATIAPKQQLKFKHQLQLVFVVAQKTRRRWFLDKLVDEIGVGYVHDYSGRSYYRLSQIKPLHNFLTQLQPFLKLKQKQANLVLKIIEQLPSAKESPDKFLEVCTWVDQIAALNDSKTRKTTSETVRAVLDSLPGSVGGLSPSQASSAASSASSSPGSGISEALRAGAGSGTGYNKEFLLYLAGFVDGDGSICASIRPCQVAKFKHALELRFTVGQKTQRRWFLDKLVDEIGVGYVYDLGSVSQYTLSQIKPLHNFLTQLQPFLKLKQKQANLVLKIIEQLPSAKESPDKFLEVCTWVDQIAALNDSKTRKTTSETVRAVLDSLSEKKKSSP
From the text: as §1, §2

Another series has as its target T3, LOX 3-4 m.111 (artificial (I-CreI derived)).
T3 chain: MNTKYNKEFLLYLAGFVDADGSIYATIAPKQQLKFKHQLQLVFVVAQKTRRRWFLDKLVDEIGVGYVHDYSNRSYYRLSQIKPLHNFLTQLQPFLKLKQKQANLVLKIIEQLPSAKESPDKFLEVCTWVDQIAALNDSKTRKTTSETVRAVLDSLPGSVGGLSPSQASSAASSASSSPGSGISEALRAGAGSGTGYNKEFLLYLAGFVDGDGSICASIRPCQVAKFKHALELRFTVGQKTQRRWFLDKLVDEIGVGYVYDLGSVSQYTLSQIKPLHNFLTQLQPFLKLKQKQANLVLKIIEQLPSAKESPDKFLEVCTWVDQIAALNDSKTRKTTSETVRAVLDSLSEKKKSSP
From the text: as §1, §2

A further series deals with T4, LOX 3-4 m.149 (artificial (I-CreI derived)).
T4 chain: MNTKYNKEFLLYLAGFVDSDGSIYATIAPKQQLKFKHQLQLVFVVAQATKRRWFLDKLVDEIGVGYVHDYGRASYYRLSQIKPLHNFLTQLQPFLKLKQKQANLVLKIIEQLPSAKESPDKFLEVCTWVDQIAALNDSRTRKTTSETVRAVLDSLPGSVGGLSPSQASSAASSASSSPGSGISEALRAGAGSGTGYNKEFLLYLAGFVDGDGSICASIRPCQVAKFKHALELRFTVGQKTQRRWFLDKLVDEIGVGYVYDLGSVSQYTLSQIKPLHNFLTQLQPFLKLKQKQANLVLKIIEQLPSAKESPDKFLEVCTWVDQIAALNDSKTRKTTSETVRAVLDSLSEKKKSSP
From the text: as §1
(§3) Novel engineered meganucleases derived from the LOX 3-4x.109 meganuclease were prepared by making amino acid substitutions at one or more positions in the first subunit. These engineered meganucleases were then evaluated for cleavage of the LOX 3-4 recognition sequence modified to have a GTAT center sequence (SEQ ID NO: 400) in the CHO reporter assay according to Example 1. Novel meganucleases which were modified to comprise the residues recited in the tables below were capable of cleaving the LOX 3-4 recognition sequence having a GTAT four base pair center sequence.

The target in another series is T5, LOX 3-4 m.140 (artificial (I-CreI derived)).
T5 chain: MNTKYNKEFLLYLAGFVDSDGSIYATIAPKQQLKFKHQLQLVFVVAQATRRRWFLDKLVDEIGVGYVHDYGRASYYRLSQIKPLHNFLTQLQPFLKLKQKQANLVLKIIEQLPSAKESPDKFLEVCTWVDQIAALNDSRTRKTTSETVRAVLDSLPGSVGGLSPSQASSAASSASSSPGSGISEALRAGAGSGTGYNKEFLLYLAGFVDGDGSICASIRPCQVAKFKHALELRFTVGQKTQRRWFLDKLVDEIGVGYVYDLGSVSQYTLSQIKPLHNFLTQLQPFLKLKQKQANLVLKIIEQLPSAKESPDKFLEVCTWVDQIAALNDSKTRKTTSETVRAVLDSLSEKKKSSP
From the text: as §1, §3

The target in another series is T6, LOX 3-4 m.152 (artificial (I-CreI derived)).
T6 chain: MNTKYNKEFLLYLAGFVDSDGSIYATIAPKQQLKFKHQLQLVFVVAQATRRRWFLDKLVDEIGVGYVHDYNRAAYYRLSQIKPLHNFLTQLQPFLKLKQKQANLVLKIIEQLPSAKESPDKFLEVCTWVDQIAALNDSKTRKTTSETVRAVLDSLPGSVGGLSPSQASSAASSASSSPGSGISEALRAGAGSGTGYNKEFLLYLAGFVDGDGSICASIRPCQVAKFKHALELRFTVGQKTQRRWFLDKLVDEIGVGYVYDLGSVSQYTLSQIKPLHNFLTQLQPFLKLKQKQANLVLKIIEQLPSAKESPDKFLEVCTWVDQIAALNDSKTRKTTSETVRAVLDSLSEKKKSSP
From the text: as §1, §3

The target in a further series is T7, LOX 3-4 M.36 (artificial (I-CreI derived)).
T7 chain: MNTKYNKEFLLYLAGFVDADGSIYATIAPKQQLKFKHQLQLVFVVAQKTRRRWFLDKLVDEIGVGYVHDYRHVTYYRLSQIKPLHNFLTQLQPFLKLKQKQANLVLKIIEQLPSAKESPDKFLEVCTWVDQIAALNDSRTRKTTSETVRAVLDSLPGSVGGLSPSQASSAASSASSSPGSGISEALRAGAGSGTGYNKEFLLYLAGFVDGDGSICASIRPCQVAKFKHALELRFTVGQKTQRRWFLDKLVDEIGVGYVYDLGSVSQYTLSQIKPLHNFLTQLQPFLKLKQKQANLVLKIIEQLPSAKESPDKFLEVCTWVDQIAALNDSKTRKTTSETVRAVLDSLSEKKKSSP
From the text: as §1
(§4) Novel engineered meganucleases derived from the LOX 3-4x.109 meganuclease were prepared by making amino acid substitutions at one or more positions in the first subunit. These engineered meganucleases were then evaluated for cleavage of the LOX 3-4 recognition sequence modified to have a GTGA center sequence (SEQ ID NO: 434) in the CHO reporter assay according to Example 1. Novel meganucleases which were modified to comprise the residues recited in the tables below were capable of cleaving the LOX 3-4 recognition sequence having a GTGA four base pair center sequence.

In a further series the target is T8, LOX 3-4 M.39 (artificial (I-CreI derived)).
T8 chain: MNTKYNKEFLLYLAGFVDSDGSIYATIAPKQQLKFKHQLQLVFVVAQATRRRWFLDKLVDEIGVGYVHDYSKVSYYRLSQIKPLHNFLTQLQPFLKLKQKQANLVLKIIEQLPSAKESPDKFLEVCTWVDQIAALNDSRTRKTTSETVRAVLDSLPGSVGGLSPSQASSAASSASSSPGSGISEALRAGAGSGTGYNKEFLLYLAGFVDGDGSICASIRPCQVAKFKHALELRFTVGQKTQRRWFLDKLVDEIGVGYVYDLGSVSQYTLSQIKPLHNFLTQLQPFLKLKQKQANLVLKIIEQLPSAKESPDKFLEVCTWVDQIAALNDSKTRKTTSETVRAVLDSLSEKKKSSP
From the text: as §1, §4

The next series addresses T9, LOX 3-4 M.47 (artificial (I-CreI derived)).
T9 chain: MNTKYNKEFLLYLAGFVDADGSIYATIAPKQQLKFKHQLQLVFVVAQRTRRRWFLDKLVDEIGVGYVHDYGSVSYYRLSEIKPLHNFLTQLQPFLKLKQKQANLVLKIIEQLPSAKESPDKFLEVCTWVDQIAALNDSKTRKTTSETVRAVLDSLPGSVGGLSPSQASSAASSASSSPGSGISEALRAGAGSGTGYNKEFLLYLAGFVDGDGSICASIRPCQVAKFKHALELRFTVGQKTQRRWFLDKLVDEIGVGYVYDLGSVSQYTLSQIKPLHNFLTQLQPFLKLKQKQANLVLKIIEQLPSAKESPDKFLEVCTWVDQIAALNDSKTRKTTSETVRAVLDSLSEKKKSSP
From the text: as §1, §4

B1: LOX 3-4 GTAG (dsDNA)
DNA 1: GTATAGCATGTAGTATACGAAG
DNA 2: CTTCGTATACTACATGCTATAC
As for B1, the values for the activity in the series with LOX 3-4 m.97, with LOX 3-4 m.108 and in the series with LOX 3-4 m.111 were 17.2 % GFP, 19.7 % GFP and 17 % GFP, respectively.

B2: LOX 3-4 GTAT (dsDNA)
DNA 1: GTATAGCATGTATTATACGAAG
DNA 2: CTTCGTATAATACATGCTATAC
For B2, the activity was found to be 12.9 % GFP with LOX 3-4 m.149, 13.1 % GFP with LOX 3-4 m.140 and 4.43 % GFP with LOX 3-4 m.152.

B3: LOX 3-4 GTGA (dsDNA)
DNA 1: GTATAGCATGTGATATACGAAG
DNA 2: CTTCGTATATCACATGCTATAC
Regarding B3, the activity stood at 2.75 % GFP with LOX 3-4 M.36, 8.66 % GFP with LOX 3-4 M.39 and 10.1 % GFP with LOX 3-4 M.47.
